# Assay results taken from patent US20250296960A1, “PEPTIDE COMPOSITIONS AND METHODS OF USE THEREOF” (priority 2022, published 2025).
# Where two headings read alike, the source gives them in different places. Numbered stars: 1 amine (or outer) side, 2 acyl side, 3 side chain; on linkers, the order of the positions; unused ones are H or OH. Square brackets hold non-standard residues; d marks the D form. Side chains are listed from the residue outwards. Ends that are not written are not given here. C18 = C18 fatty acid (C16-C22 fatty acids conjugated via γGlu/8-amino-3,6-dioxaoctanoic acid spacers); γGlu = O=C(O)[C@H](CCC(=O)[*:2])N[*:1]; AEEA = NCCOCCOCC(=O)O; Aib = CC(C)(N)C(=O)O; MAL = maleimide
# T1: human glucose-dependent insulinotropic polypeptide receptor (GIPR), expressed on CHO-K1 cells (human, UniProt P48546 22-466)
# T1 sequence (looked up): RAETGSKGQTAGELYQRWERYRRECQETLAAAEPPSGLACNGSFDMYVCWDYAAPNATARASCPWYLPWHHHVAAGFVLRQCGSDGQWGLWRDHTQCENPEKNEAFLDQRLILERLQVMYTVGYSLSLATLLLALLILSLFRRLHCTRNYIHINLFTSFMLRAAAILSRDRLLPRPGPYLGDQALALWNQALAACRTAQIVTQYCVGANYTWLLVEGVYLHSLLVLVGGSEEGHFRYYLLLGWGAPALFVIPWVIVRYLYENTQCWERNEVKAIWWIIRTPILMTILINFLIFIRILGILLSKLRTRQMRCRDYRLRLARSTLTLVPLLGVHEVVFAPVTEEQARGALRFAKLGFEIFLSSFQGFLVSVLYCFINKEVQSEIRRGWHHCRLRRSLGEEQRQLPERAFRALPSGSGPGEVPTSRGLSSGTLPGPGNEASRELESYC
# B1: Peptide No. 5-5A (peptide)
# peptide: H[Aib]QGTFTSDYSKLLDYMMQRDFVQWLLEGGPSSGAPPPSC([MAL-AEEA-AEEA-γGlu-C18])-NH2
# B2: Peptide No. 5-1A (peptide)
# peptide: Y[Aib]QGTFTSDYSKYLDYMMARDFVQWLIEGGPSSGAPPPSC-NH2
# modifications: not fully specified (residue 40)
# B3: Peptide No. 57 (with C-terminal cysteine) (peptide)
# peptide: H[Aib]QGTFTSDHSKYLDGAWAADFVMWLLDGGPSSGAPPPSC-NH2
# B4: Peptide No. 18 (with C-terminal cysteine) (peptide)
# peptide: H[Aib]QGTFTSDHSWYLDKWTAHDFVQWLINGGPSSGAPPPSC-NH2
# B5: Peptide No. 5-2A (peptide)
# peptide: Y[Aib]QGTFTSDYSKYLDYMMQRDFVQWLIEGGPSSGAPPPSC-NH2
# modifications: not fully specified (residue 40)
# B6: Peptide No. 32A (peptide 32, A type: lipid at Cys40) (peptide)
# peptide: H[Aib]QGTFTSDASKYLDRDWTGDFVQWLIDGGPSSGAPPPSC([MAL-AEEA-AEEA-γGlu-C18])-NH2
# B7: Peptide No. 12 (with C-terminal cysteine) (peptide)
# peptide: H[Aib]QGTFTSDWSKYLDQQMAQDFVDWLINGGPSSGAPPPSC-NH2
# B8: Peptide No. 18A (peptide 18, A type: lipid at Cys40) (peptide)
# peptide: H[Aib]QGTFTSDHSWYLDKWTAHDFVQWLINGGPSSGAPPPSC([MAL-AEEA-AEEA-γGlu-C18])-NH2
# B9: Peptide No. 12A (peptide 12, A type: lipid at Cys40) (peptide)
# peptide: H[Aib]QGTFTSDWSKYLDQQMAQDFVDWLINGGPSSGAPPPSC([MAL-AEEA-AEEA-γGlu-C18])-NH2
# How the values were obtained:
# Experiment in all cases: cell-based or functional assay
# [1] = target: T1, human glucose-dependent insulinotropic …
# [2] = target: T2, human GLP-1 receptor (GLP-1R), expressed on CHO-K1 cells (human, UniProt P43220 24-463)
# [3] = target: T3, human glucagon receptor (GCGR), expressed on CHO-K1 cells (human, UniProt P47871 26-477)
# [4] = target: T1, human glucose-dependent insulinotropic …; remark: listed apart in the source
# [5] = target: T2, human GLP-1 receptor (GLP-1R), …; remark: listed apart in the source
# [6] = target: T3, human glucagon receptor (GCGR), …; remark: listed apart in the source
# [7] = target: T1, human glucose-dependent insulinotropic …; remark: listed apart in the source
# [8] = target: T2, human GLP-1 receptor (GLP-1R), …; remark: listed apart in the source
# [9] = target: T3, human glucagon receptor (GCGR), …; remark: listed apart in the source
# [10] = target: T1, human glucose-dependent insulinotropic …; remark: listed apart in the source
# [11] = target: T2, human GLP-1 receptor (GLP-1R), …; remark: listed apart in the source
# [12] = target: T3, human glucagon receptor (GCGR), …; remark: listed apart in the source
# [13] = target: T1, human glucose-dependent insulinotropic …; remark: listed apart in the source
# [14] = target: T2, human GLP-1 receptor (GLP-1R), …; remark: listed apart in the source
# [15] = target: T3, human glucagon receptor (GCGR), …; remark: listed apart in the source
# [16] = target: T2, human GLP-1 receptor (GLP-1R), …; remark: listed apart in the source
# [17] = target: T3, human glucagon receptor (GCGR), …; remark: listed apart in the source
# [18] = target: T1, human glucose-dependent insulinotropic …; remark: listed apart in the source
# [19] = target: T3, human glucagon receptor (GCGR), …; remark: listed apart in the source
# [20] = target: T2, human GLP-1 receptor (GLP-1R), …; remark: listed apart in the source
# [21] = target: T1, human glucose-dependent insulinotropic …; remark: listed apart in the source
# T3 sequence (P47871 26-477): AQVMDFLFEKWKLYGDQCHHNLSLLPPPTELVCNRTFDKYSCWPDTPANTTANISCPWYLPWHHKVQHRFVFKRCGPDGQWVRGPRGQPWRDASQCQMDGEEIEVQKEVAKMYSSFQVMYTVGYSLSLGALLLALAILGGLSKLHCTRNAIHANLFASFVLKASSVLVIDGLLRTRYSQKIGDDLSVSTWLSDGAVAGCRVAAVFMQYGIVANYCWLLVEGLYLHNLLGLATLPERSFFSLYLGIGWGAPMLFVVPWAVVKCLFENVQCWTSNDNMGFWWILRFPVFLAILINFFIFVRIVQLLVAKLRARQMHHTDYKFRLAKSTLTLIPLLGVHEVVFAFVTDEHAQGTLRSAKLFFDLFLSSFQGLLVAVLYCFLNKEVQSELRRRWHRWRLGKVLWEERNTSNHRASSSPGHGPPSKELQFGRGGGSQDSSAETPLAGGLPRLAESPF
Binder,Ratio vs. GLP-1R [1],Ratio vs. GLP-1R [2],Ratio vs. GLP-1R [3],Relative % to native ligand [4] [%],Relative % to native ligand [5] [%],Relative % to native ligand [6] [%],Relative % to non-lipidated peptide [7] [%],Relative % to non-lipidated peptide [8] [%],Relative % to non-lipidated peptide [9] [%],Activity relative to GLP-1 (%) [10] [%],Activity relative to GLP-1 (%) [11] [%],Activity relative to GLP-1 (%) [12] [%],"EC50 (nM), cAMP assay [13] [nM]","EC50 (nM), cAMP assay [14] [nM]","EC50 (nM), cAMP assay [15] [nM]",Percentage change in EC50 relative to GLP-1 at human GLP-1R (%) [16] [%],Percentage change in EC50 relative to GCG at human GCGR (%) [17] [%],Percentage change in EC50 relative to GIP at human GIPR (%) [18] [%],Percentage change in EC50 relative to GCG at human GCGR (%) [19] [%],Percentage change in EC50 relative to GLP-1 at human GLP-1R (%) [20] [%],also measured
B1,2,100,0,14,673,1,3,40,1,2,100,0,5.17,0.0747,9.43,,,,,,
B2,1,100,13,1,187,24,11,159,0,1,100,13,53.9,0.269,0.576,,,,,,
B3,,,,,,,,,,,,,,,,1,1,0,,,
B4,,,,,,,,,,,,,,,,40,1,0,,,
B5,2,100,0,3,145,1,0.4,29,1,2,100,0,24.7,0.348,23,,,,,,
B6,,,,,,,,,,,,,,,,,,,0,1,Percentage change in EC50 relative to GIP at human GIPR (%) [21]: 0%
B7,,,,,,,,,,,,,,,,303,1200,4,,,
B8,,,,,,,,,,,,,,,,,,,0,0,Percentage change in EC50 relative to GIP at human GIPR (%) [21]: 0%
B9,,,,,,,,,,,,,,,,,,,15,296,Percentage change in EC50 relative to GIP at human GIPR (%) [21]: 8%
